Laboratory results from article PMC6763497, “Argonaute bypasses cellular obstacles without hindrance during target search”.
Changes are numbered by the printed parent chain.

Legend:
CbAgo [1] = target: T1, CbAgo (Clostridium butyricum, UniProt P0DYD1 1-748); assay: smFRET; shuttling time as tandem 11 nt; 50 mM Tris-HCl pH 8.0, 100 mM NaCl (10-200 mM in salt series); temperature not given; TIRF smFRET, 100 ms; conditions: protein: recombinant; tags: His6-MBP removed by TEV; label: Cy3 guide; Cy5 target; 5' biotin strand; fork 2:3, 17 bp stem
CbAgo [2] = target: T1, CbAgo; assay: smFRET; three-state shuttling; 50 mM Tris-HCl pH 8.0, 100 mM NaCl (10-200 mM in salt series); temperature not given; TIRF smFRET, 100 ms; conditions: protein: recombinant, tags: His6-MBP removed by TEV, label: Cy3 guide, Cy5 target, 3' biotin, three sites 11 nt apart
CbAgo [3] = target: T1, CbAgo; assay: smFRET; Lin28b bound between targets; shuttling; 50 mM Tris-HCl pH 8.0, 100 mM NaCl (10-200 mM in salt series); temperature not given; TIRF smFRET, 100 ms; conditions: protein: recombinant; tags: His6-MBP removed by TEV; label: Cy3 guide; Cy5 target; hairpin between two ss target sites
CbAgo [4] = target: T1, CbAgo; assay: smFRET; shuttling time 2.11 s (2.03-2.19); 50 mM Tris-HCl pH 8.0, 100 mM NaCl (10-200 mM in salt series); temperature not given; TIRF smFRET, 100 ms; conditions: protein: recombinant, tags: His6-MBP removed by TEV, label: Cy3 guide, Cy5 target, 3' biotin dT, two sites
CbAgo [5] = target: T1, CbAgo; assay: smFRET; shuttling rate 0.3188 s-1; 50 mM Tris-HCl pH 8.0, 100 mM NaCl (10-200 mM in salt series); temperature not given; TIRF smFRET, 100 ms; conditions: protein: recombinant, tags: His6-MBP removed by TEV, label: Cy3 guide, Cy5 target, 3' biotin dT, two sites
CbAgo [6] = target: T1, CbAgo; assay: smFRET; 100 mM NaCl; mean dwell 37 s, koff 2.7e-2 s-1; 50 mM Tris-HCl pH 8.0, 100 mM NaCl (10-200 mM in salt series); temperature not given; TIRF smFRET, 100 ms; conditions: protein: recombinant, tags: His6-MBP removed by TEV, label: Cy3 guide, Cy5 target, 3' biotin target, 3 nt match (guide nt 2-4)
CbAgo [7] = target: T1, CbAgo; assay: smFRET; stable beyond photobleaching time; 50 mM Tris-HCl pH 8.0, 100 mM NaCl (10-200 mM in salt series); temperature not given; TIRF smFRET, 100 ms; conditions: protein: recombinant, tags: His6-MBP removed by TEV, label: Cy3 guide, Cy5 target, 3' biotin target
CbAgo [8] = target: T1, CbAgo; assay: smFRET; 100 mM NaCl; 87.8% shuttling, 13.5 events per binding; 50 mM Tris-HCl pH 8.0, 100 mM NaCl (10-200 mM in salt series); temperature not given; TIRF smFRET, 100 ms; conditions: protein: recombinant, tags: His6-MBP removed by TEV, label: Cy3 guide, Cy5 target, 3' biotin, two sites
CbAgo [9] = target: T1, CbAgo; assay: smFRET; 15.1% shuttling; strongly bound; 50 mM Tris-HCl pH 8.0, 100 mM NaCl (10-200 mM in salt series); temperature not given; TIRF smFRET, 100 ms; conditions: protein: recombinant, tags: His6-MBP removed by TEV, label: Cy3 guide, Cy5 target, 3' biotin, two sites, 6 nt match
CbAgo [10] = target: T1, CbAgo; assay: smFRET; shuttling time 0.4459 s at 200 mM NaCl; 50 mM Tris-HCl pH 8.0, 100 mM NaCl (10-200 mM in salt series); temperature not given; TIRF smFRET, 100 ms; conditions: protein: recombinant, tags: His6-MBP removed by TEV, label: Cy3 guide, Cy5 target, 3' biotin, two sites
CbAgo [11] = target: T1, CbAgo; assay: smFRET; shuttling time 0.5124 s at 200 mM NaCl; 50 mM Tris-HCl pH 8.0, 100 mM NaCl (10-200 mM in salt series); temperature not given; TIRF smFRET, 100 ms; conditions: protein: recombinant, tags: His6-MBP removed by TEV, label: Cy3 guide, Cy5 target, 3' biotin dT, two sites
CbAgo [12] = target: T1, CbAgo; assay: smFRET; 17 bp blockade, shuttling; 50 mM Tris-HCl pH 8.0, 100 mM NaCl (10-200 mM in salt series); temperature not given; TIRF smFRET, 100 ms; conditions: protein: recombinant; tags: His6-MBP removed by TEV; label: Cy3 guide; 3' biotin dT target; strands 2:3 pair over 17 bp, ss flanks
CbAgo [13] = target: T1, CbAgo; assay: smFRET; 21 bp blockade; 50 mM Tris-HCl pH 8.0, 100 mM NaCl (10-200 mM in salt series); temperature not given; TIRF smFRET, 100 ms; conditions: protein: recombinant; tags: His6-MBP removed by TEV; label: Cy3 guide; 3' biotin dT target; strands 2:3 pair over 21 bp, ss flanks
CbAgo [14] = target: T1, CbAgo; assay: smFRET; 25 bp blockade; 50 mM Tris-HCl pH 8.0, 100 mM NaCl (10-200 mM in salt series); temperature not given; TIRF smFRET, 100 ms; conditions: protein: recombinant; tags: His6-MBP removed by TEV; label: Cy3 guide; 3' biotin dT target; strands 2:3 pair over 25 bp, ss flanks

B1: Guide 3nt / 11 nt Y-fork (mixed)
DNA 1: CGAGTATTTTTTTTTTTTTTTT
DNA 2: TTTTTTTTTTTTTTTTTTTTTTTTCTCTTTGGCGACGGCAGCGAGGC
DNA 3: GCCTCGCTGCCGTCGCCATTTTTTCTCTTTTTTTTT
modifications: guide 5' phosphate; dye-labelled T in target
binding result (CbAgo [1]): binds

B2: Guide 3nt / triple target (ssDNA)
DNA 1: CGAGTATTTTTTTTTTTTTTTT
DNA 2: TTTTTTTTTTTTACCTCTTTTTTACCTCTTTTTTACCTCTTTTTTTTTTTTTTTTTTTTTTTTTTTTTT
modifications: guide 5' phosphate; amino-C6-dT
binding result (CbAgo [2]): binds

B3: Guide 3nt / Lin28 double target (mixed)
DNA 1: CGAGTATTTTTTTTTTTTTTTT
DNA 2: TTTTTTTTTTTTTTTTTTTACTACCTCTTTTTTTTTTTTTTTTTTTTGCGCTATGCGGTTGTATAGTTTTAGGGTCACACCCACCACTGGGAGATAACTATACAATCGCATAGCGCTTTTTTTTTTTTTTTTTTTTTTTTTTTTTTTTTACTACCTCTTTTTTTTTTTTTTTTT
modifications: guide 5' phosphate; amino-C6-dT
binding result (CbAgo [3]): binds

B4: Guide 3nt / tandem 120 nt (ssDNA)
DNA 1: CGAGTATTTTTTTTTTTTTTTT
DNA 2: TTTTTTTTTTTTTTACTACCTCTTTTTTTTTTTTTTTTTTTTTTTTTTTTTTTTTTTTTTTTTTTTTTTTTTTTTTTTTTTTTTTTTTTTTTTTTTTTTTTTTTTTTTTTTTTTTTTTTTTTTTTTTTTTTTTTACTACCTCTTTTTTTTTTTTTTTTTTTTTTTTTTTTTTT
modifications: guide 5' phosphate; amino-C6-dT; target 3' phosphate
binding result (CbAgo [4]): binds

B5: Guide 3nt / tandem 92 nt (ssDNA)
DNA 1: CGAGTATTTTTTTTTTTTTTTT
DNA 2: TTTTTTTTTTTTTTACTACCTCTTTTTTTTTTTTTTTTTTTTTTTTTTTTTTTTTTTTTTTTTTTTTTTTTTTTTTTTTTTTTTTTTTTTTTTTTTTTTTTTTTTTACTACCTCTTTTTTTTTTTTTTTTTTTTTTTTTTTTTTT
modifications: guide 5' phosphate; amino-C6-dT; target 3' phosphate
binding result (CbAgo [5]): binds

B6: Guide 3nt (2-4) / single target (ssDNA)
DNA 1: CGAGTATTTTTTTTTTTTTTTT
DNA 2: TTTTTTTTTTTTTTTTTTTTTTTTTTTTTTTTTTTACTACCTCTTTTTTTTTTTTTTTTTTTTTTTTTTTTTT
modifications: guide 5' phosphate; amino-C6-dT at guide nt 9 and target nt 28
binding result (CbAgo [6]): binds

B7: Guide 7nt (2-8) / single target (ssDNA)
DNA 1: CGAGGTAGATTTTTTTTTTTTT
DNA 2: B6 DNA 2
modifications: guide 5' phosphate; amino-C6-dT
binding result (CbAgo [7]; named 7 nt match (nt 2-8)): binds

B8: Guide 3nt / tandem 22 nt (ssDNA)
DNA 1: CGAGTATTTTTTTTTTTTTTTT
DNA 2: B6 DNA 2 with T14A, T15C, T17A, T18C, T19C, T21C
modifications: guide 5' phosphate; amino-C6-dT
binding result (CbAgo [8]): binds

B9: Guide 6nt / tandem 22 nt (ssDNA)
DNA 1: CGAGGTATTTTTTTTTTTTTTT
DNA 2: B6 DNA 2 with T14A, T15C, T17A, T18C, T19C, T21C
modifications: guide 5' phosphate; amino-C6-dT
binding result (CbAgo [9]): binds

B10: Guide 8nt (2-9) / single target (ssDNA)
DNA 1: CGAGGTAGTTTTTTTTTTTTTT
DNA 2: B6 DNA 2
modifications: guide 5' phosphate; amino-C6-dT
binding result (CbAgo [7]; named 8 nt match (nt 2-9)): binds

B11: Guide 3nt / tandem 15 nt (ssDNA)
DNA 1: CGAGTATTTTTTTTTTTTTTTT
DNA 2: TTTTTTTTTTTTTACTACCTCTTTTTTTACTACCTCTTTTTTTTTTTTTTTTTTTTTTTTTTTTTT
modifications: guide 5' phosphate; amino-C6-dT
binding result (CbAgo [10]): binds

B12: Guide 3nt / tandem 64 nt (ssDNA)
DNA 1: CGAGTATTTTTTTTTTTTTTTT
DNA 2: TTTTTTTTTTTTTTACTACCTCTTTTTTTTTTTTTTTTTTTTTTTTTTTTTTTTTTTTTTTTTTTTTTTTTTTTTTTTACTACCTCTTTTTTTTTTTTTTTTTTTTTTTTTTTTTTTT
modifications: guide 5' phosphate; amino-C6-dT; target 3' phosphate
binding result (CbAgo [11]): binds

B13: Guide 3nt / 36 nt target with 17 nt block (mixed)
DNA 1: CGAGTATTTTTTTTTTTTTTTT
DNA 2: TTTTTTTTTTTTTTACTACCTCTCGGACCAACAGCGGGTACGGCTGTGCTACTACCTCTTTTTTTTTTTTTTTTTTTTTTTTTTTTTTTT
DNA 3: ACAGCCGTACCCGCTGT
modifications: guide 5' phosphate; labelled T in block
binding result (CbAgo [12]): binds

B14: Guide 3nt / 36 nt target with 21 nt block (mixed)
DNA 1: CGAGTATTTTTTTTTTTTTTTT
DNA 2: B13 DNA 2
DNA 3: GCACAGCCGTACCCGCTGTTG
modifications: guide 5' phosphate; labelled T in block
binding result (CbAgo [13]): binds

B15: Guide 3nt / 36 nt target with 25 nt block (mixed)
DNA 1: CGAGTATTTTTTTTTTTTTTTT
DNA 2: B13 DNA 2
DNA 3: TAGCACAGCCGTACCCGCTGTTGGT
modifications: guide 5' phosphate; labelled T in block
binding result (CbAgo [14]): binds
